Blank lines part the entries; values can stand above or below the molecule they belong to.
Columns and labels:
Format in all cases: cell-based, mouse
[1] = system: ESCs; assay: Colony formation assay (alkaline phosphatase staining) after pulse treatment; settings: during transient glutamine withdrawal and in the presence of exogenous glutamine; FIG. 7H, 7I
Description: For transient glutamine withdrawal (“pulse”) experiments, cells were initially plated in standard S/L medium as described above. The following day, cells were washed with PBS and then changed to experimental medium containing a 1:1 mix of glutamine-free DMEM and glutamine-free Neurobasal medium including 10% dialyzed FBS, 2-mercaptoethanol, LIF, and containing (“Ctrl”) or lacking (“Pulse”) L-glutamine as indicated. 24 hours later, cells were washed with PBS and then returned to glutamine-replete medium (“Recover”). 24 hours later, cells were subjected to either image analysis, flow cytometry, or plated for colony formation assays as indicated. For glutamine pulse experiments in human ESCs, cells were initially plated at a density of 300,000 cells/well in a tissue-culture treated polystyrene 12-well plate coated with vitronectin (Thermo Fisher Scientific, A14700) in E8 medium (Thermo Fisher Scientific, A1517001) containing 10 uM ROCK inhibitor Y-27632 (Selleck Chemicals S1049). 24 hrs after plating, medium was changed to modified E8 medium containing: DMEM high glucose without glutamine (Thermo Fisher 11960044), 10.7 mg/L Transferrin (Sigma T0665), 64 mg/L L-Ascorbic Acid (Sigma A890), 14 ug/L Sodium Selenite (Sigma S5261), 543 mg/L Sodium Bicarbonate (Research Products International 144558), 19.4 mg/L insulin (Sigma 19278), 100 ug/L bFGF (EMD Millipore GF003AF), 2 ug/L TGFβ1 (Peprotech 10021), and 2 mM L-glutamine. After 24 hrs of culture in modified E8 medium, medium was changed to modified E8 medium containing 2 mM or 0 mM L-glutamine for 24 hrs. All cells were then changed to modified E8 medium containing 2 mM L-glutamine and cultured for 24 hrs before harvest for analysis. […] For ESC colony formation assays, colonies were scored manually in a blinded fashion. For reprogramming experiments, alkaline-phosphatase colonies were scored automatically using ImageJ (NIH). Briefly, images of each well were binarized using the Default function and particles greater than 8 pixels with a circularity of 0.7-1.0 were counted.

[2] = system: Stat3 target gene Tfcp2l1 and key transcription factors associated with naïve pluripotency; assay: qRT-PCR of STAT3-target genes and other key pluripotency genes; settings: ESCs expressing GCSF-activated LIF receptor; FIG. 5B
Description: RNA was isolated from six-well plates using Trizol (Invitrogen) according to manufacturer instructions. 200 ng RNA was used for cDNA synthesis using iScript (BioRad). Quantitative real-time PCR analysis was performed in technical triplicate using QuantStudio 7 Flex (Applied Biosystems) with Power SYBR Green (Life Technologies). All data were generated using cDNA from triplicate wells for each condition. Actin was used as an endogenous control for all experiments. The following primers were used: […]

[3] = system: ESCs expressing the G-CSF-activated LIF receptor transgene; assay: GC-MS isotope tracing of [U-13C]glucose or [U-13C]glutamine
Description: Steady state TCA cycle metabolite measurements. Cells were seeded in standard S/L medium in 6-well plates. 24 hours later, cells were washed with PBS and changed into experimental medium containing a 1:1 mix of glutamine-free DMEM and glutamine-free Neurobasal medium including 10% dialyzed FBS, 2-mercaptoethanol, LIF, and 2 mM L-glutamine. The next day, cells were washed with PBS and subjected to the same experimental medium either with or without 2 mM glutamine. 8 hours later, metabolites were extracted with 1 mL ice-cold 80% methanol containing 2 μM deuterated 2-hydroxyglutarate (D-2-hydroxyglutaric-2,3,3,4,4-d5 acid, d5-2HG) as an internal standard. After overnight incubation at −80° C., lysates were harvested and centrifuged at 21,000 g for 20 minutes to remove protein. Extracts were dried in an evaporator (Genevac EZ-2 Elite) and resuspended by incubating at 30° C. for 2 hours in 50 μL of 40 mg/mL methoxyamine hydrochloride in pyridine. Metabolites were further derivatized by addition of 80 μL of MSTFA+1% TCMS (Thermo Scientific) and 70 μl ethyl acetate (Sigma) and then incubated at 37° C. for 30 minutes. Samples were analyzed using an Agilent 7890A GC coupled to Agilent 5977C mass selective detector. The GC was operated in splitless mode with constant helium gas flow at 1 mL/min. 1 μl of derivatized metabolites was injected onto an HP-5MS column and the GC oven temperature ramped from 60° C. to 290° C. over 25 minutes. Peaks representing compounds of interest were extracted and integrated using MassHunter software (Agilent Technologies) and then normalized to both the internal standard (d5-2HG) peak area and protein content of duplicate samples as determined by BCA protein assay (Thermo Scientific). Ions used for quantification of metabolite levels are as follows: d5-2HG m/z 354; αKG, m/z 304; aspartate, m/z 334; citrate, m/z 465; fumarate, m/z 245; glutamate, m/z 363; malate, m/z 335 and succinate, m/z 247. All peaks were manually inspected and verified relative to known spectra for each metabolite.
Isotope tracing studies. For isotope tracing studies, cells were seeded in standard S/L medium in 6-well plates. 24 hours later, cells were washed with PBS and changed into experimental medium containing a 1:1 mix of glutamine-free DMEM and glutamine-free Neurobasal medium including 10% dialyzed FBS, 2-mercaptoethanol, LIF, and 2 mM L-glutamine. […] Enrichment of ^13C was assessed by quantifying the abundance of the following ions: aKG, m/z 304-318; aspartate, m/z 334-346; citrate, m/z 465-482; fumarate, m/z 245-254; glutamate, m/z 363-377 and malate, m/z 335-347. […]

[4] = system: JAK/STAT3 signaling; assay: Immunoblot of phospho-STAT3 and total STAT3; settings: ESCs expressing chimeric GCSF-responsive LIF receptor; FIG. 5A
Description: Protein lysates were extracted in 1× radioimmunoprecipitation assay buffer (Cell Signaling Technology), separated by SDS—polyacrylamide gel electrophoresis and transferred to nitrocellulose membranes (Bio-Rad). Membranes were blocked in 3% milk in Tris-buffered saline with 0.1% Tween20 (TBST) and incubated at 4° C. with primary antibodies overnight. After TBST washes the next day, membranes were incubated with horseradish peroxidase-conjugated secondary antibodies for 2 h, incubated with enhanced chemiluminescence (Thermo Fisher Scientific) and imaged with an SRX-101A X-ray Film Processor (Konica Minolta). The antibodies used (at 1:1,000 unless otherwise stated) were: Nanog (catalogue no. AF2729; R&D Systems); KLF4 (catalogue no. ab129473; Abcam), phospho-Stat3 (catalogue no. 9138; Cell Signaling Technology); Stat3 (124146, catalogue no. 9139; Cell Signaling Technology), and α-Tubulin (1:10,000, catalogue no. 79026; Sigma-Aldrich).

ESC self-renewal (Nanog-GFP, colony formation) [1]: impaired ESC self-renewal
Molecule: CCOC(=O)CCNc1cc(N2CCc3ccccc3CC2)nc(-c2ccccn2)n1 [GSK-J4]

fraction of TCA cycle metabolites derived from oxidative decarboxylation of glucose-derived pyruvate (m+2 isotopologues) ([3]; [U-13C]glucose, FIG. 1B): increased
fraction of metabolites derived from glutamine catabolism ([3]; [U-13C]glutamine, FIG. 1D): decreased
fraction of glutamate derived from glutamine ([3]; [U-13C]glutamine, control ESCs more than 80%, FIG. 1D): 60%
B1: GCSF: granulocyte colony-stimulating factor, activates the chimeric LIF receptor transgene (protein, UniProt P09919 31-207, looked up)
Granulocyte …: TPLGPASSLPQSFLLKCLEQVRKIQGDGAALQEKLVSECATYKLCHPEELVLLGHSLGIPWAPLSSCPSQALQLAGCLSQLHSGLFLYQGLLQALEGISPELGPTLDTLQLDVADFATTIWQQMEELGMAPALQPTQGAMPAFASAFQRRAGGVLVASHLQSFLEVSYRVLRHLAQP
expression of Tfcp2l1 and naïve pluripotency transcription factors [2]: enhancing expression
intracellular pools of glutamate when deprived of exogenous glutamine ([3]; [U-13C]glucose, 4 h glutamine withdrawal, FIG. 5C): able to use glucose and other anaplerotic substrates to maintain intracellular pools of glutamate
JAK/STAT3 signaling (phospho-STAT3) [4]: elevated and sustained JAK/STAT3 signaling

Source: patent US20220306986A1, “NON-INVASIVE METHODS FOR SELECTIVELY ENRICHING PLURIPOTENT CELLS” (MEMORIAL SLOAN-KETTERING CANCER CENTER, priority 2019, published 2022)
